Tested on: MS2 coat protein
Assay: apparent KD of MS2 coat protein; designed switch direction (-1 OFF switch, 1 ON switch): -1; higher = weaker reporter binding
How it was run: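 Designed RNA switches were transcribed on Illumina chips by stalled E. coli RNA polymerase and titrated with SNAP-549-labelled MS2 coat protein from 0.7 or 1.5 nM, doubling to 3 µM. Step length ran from 0.8–1.5 h at the lowest concentration to 10–20 min at the highest. The apparent KD is the median over clusters for each design, from curve-fitted normalised cluster fluorescence.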

[1] = input ligand: microRNA oligo, concentration not stated
[2] = Eterna round: R95, input ligand: FMN 200 uM
[3] = Eterna round: R95, input ligand: microRNA oligo, concentration not stated
[4] = Eterna round: R95, input ligand: none

| Sequence | apparent KD of MS2 coat protein (input ligand: FMN 200 uM) | apparent KD of MS2 coat protein (input ligand: none) | apparent KD of MS2 coat protein [1] | apparent KD of MS2 coat protein [2] | apparent KD of MS2 coat protein [3] | apparent KD of MS2 coat protein [4] |
| --- | --- | --- | --- | --- | --- | --- |
| UAUUAGCAAGCGAGAUCCCACAUGAGGAUCACCCAUGUGCUCGUCUUAUAAAAGACUGUGACGAUAGUCACGGUCAC [Mat - Sensor, turn-off var - Eli Mod - D22] (Eterna round: R97, puzzle: Sensor, turn-off variant 1) | 14.2 nM | 13.1 nM |  |  |  |  |
| GCGCACCUACCAAAAGGUAGGCCGACAUGAGGAUCACCCAUGUAGGAUAUCGAUUGCUUUGCAGUCGAGAAGGACAUGAUGCGC [JL ENG3 3.80 Mod 9] (Eterna round: R96, puzzle: Exclusion NG 3) | 35.8 nM | 19 nM | 11.6 nM |  |  |  |
| AGAUGGCGAGGAUAUACAUGAGGAUCACCCAUGUGAGAAGAAAGAGUGAGGAAGAAAAGUAGAAGGCGCUGUCA [Mat - Exclusion 3 - Mod of Salish D19] (puzzle: Exclusion 3) |  |  |  | 209 nM | 95.4 nM | 76.1 nM |
| AAAGGACGAGGAUAUACAUGAGGAUCACCCAUGUAAGAAGCAUAAUAAAAUAACUUAUGUAGAAGGCGUCCAAA [Mat - Exclusion 3 - Eli mod - D94] (Eterna round: R96, puzzle: Exclusion 3) |  |  | 17 nM |  |  |  |
| AGUAUGUCAGGAUAUCUCGGGUAGCCCACAACGACUACCGAAGAGAAGGGACAUGAGGAUCACCCAUGUACCAU [EX4 B.15] (Eterna round: R97, puzzle: Exclusion 4) | 29.9 nM | 34.3 nM |  |  |  |  |
| GCACUGCGAGGAUAUACAUGAGGAUCACCCAUGUGUCGGCAGCCACGGUAGUACAAGUGUAGAAGGCGCGUUAG [EX3 #47] (Eterna round: R97, puzzle: Exclusion 3) | 140 nM | 69.1 nM |  |  |  |  |
| GCGGACUAGAACGUGAGUUCUGAGACAUGAGGAUCACCCAUGUAGGAUAUCGAUUCGUUUCGAAUCGAGAAGGGCAUAGUCCGC [JL denovo 12] (Eterna round: R96, puzzle: Exclusion NG 3) | 21.3 nM | 20.3 nM | 14.2 nM |  |  |  |
| ACAUGAGGAUCACCCAUGUUCGGCUGGUCCGUUUCGGCUGUCGAGGAUAUAGUUCGGUGUCCGCGCUAGAAGGCGGGAGCCGGC [Aenatbe mod 63] (Eterna round: R96, puzzle: Exclusion NG 3) | 153 nM | 78.5 nM | 54.5 nM |  |  |  |
| GUAGAGUAAGGAUAUGUAGAAUAGGAUAGAAUGGUUAGAAUACAGAAGGUACAUGAGGAUCACCCAUGUAAUGU [Excluse me!!!! 3 - Jieux - Exclusion 4] (puzzle: Exclusion 4) |  |  |  |  | 17 nM |  |
| UUUAAUCGUGACAUGGGUGACAUGAGGAUCACCCAUGUCACAAGCUUCUUGCUCGUCUUAUAAUUAACCCAUGUCAC [LRO Sensor-off var1-12 mod of Stov1-13-A1 by Brourd] (Eterna round: R97, puzzle: Sensor, turn-off variant 1) | 18.8 nM | 18.3 nM |  |  |  |  |
| CAUAGUUACUCAGGAUAUAGUACAUGAGGAUCACCCAUGUAAUAAAUGAGAAUUUCGAAUGUAUACUAGAAGGGAGAAAUCUAC [Ostracism 55 - Jieux - Exclusion NG 2] (Eterna round: R96, puzzle: Exclusion NG 2) | 44.5 nM | 46.1 nM | 35.8 nM |  |  |  |
| UAUUUGUGAGGAUAUGAGUCGUAGAACAAUAGUACUACGUCUCAGAAGGUACAUGAGGAUCACCCAUGUUCCUC [Fiskers Ex 4 Super Stable 44 mod 31] (puzzle: Exclusion 4) |  |  |  |  | 18.4 nM |  |
| CAUUAUGUUGAGGAUAUGCGCCGGCUCGCUGGCGCAGAAGGCGACACAUGAGGAUCACCCAUGUCAGUUCGCGA [salish99_ex6_r004_418] (Eterna round: R97, puzzle: Exclusion 6) | 13.3 nM | 8.87 nM |  |  |  |  |
| CUUAGACAUGAGGAUCACCCAUGUGAGGAUAUGAUGCGAAUGAAGAAAGAAGGAAGCAUCAGAAGGCACAUAUG [Mat - Mod of Hyphema D26] (puzzle: Exclusion 1) |  |  |  | 323 nM | 163 nM | 143 nM |
| AGUAGGUCUACCUUGGUGGAUCUGCAUUUAUGCAGGUGUACAUGAGGAUCACCCAUGUCCUCAUUUGCUCGUCUUAU [JL turnoff v2 99.27] (puzzle: Sensor v3, turn-off variant 2) |  |  |  | 400 nM | 501 nM | 349 nM |
| UGAUGACAUGAGGAUCACCCAUGUCAGGAUAUUGAAGUUGAAGUGAAAGCUUCGGCUUCGAGAAGGGACUGUCG [-29.3, -26.3 kcal, A 28% sequence 3] (Eterna round: R97, puzzle: Exclusion 1) | 29.5 nM | 25 nM |  |  |  |  |
| CCGGAACAUGAGGAUCACCCAUGUGAGGAUAUCGUACGUUCGUCGAAAGACGAUCGUACGAGAAGGCAUGCCGG [Eli x1 4.34] (Eterna round: R97, puzzle: Exclusion 1) | 19.6 nM | 27.7 nM |  |  |  |  |
| AUAGGGUCAGGAUAUUGCGCAGUGGACAUGAGGAUCACCCAUGUGAACUUCGUACCGGGCCAAGAAGGGACAGAAA [Tiersoaso] (puzzle: Exclusion 5) |  |  |  | 21.7 nM | 11.3 nM | 13.4 nM |
| CCCAUGCCCGAGGAUAUGCUGUACAAAAGUACUGCAGAAGGCGGGACAUGAGGAUCACCCAUGUGGCGAAAGCC [Omei Ex G7] (Eterna round: R97, puzzle: Exclusion 6) | 11.5 nM | 124 nM |  |  |  |  |
| GGUCCUUCUGUCAGGAUAUCCAGUAUCAGACAGCAGGAGAAGGGACAUGAGGAUCACCCAUGUAAUAAGAAGAA [Onrean] (Eterna round: R97, puzzle: Brourd's mod of Exclusion 4) | 51.9 nM | 27.6 nM |  |  |  |  |
| AAAGGUGAGUAGGAUAUCCGCGCACGAAUAAAAGGAGAAGGACUUACAUGAGGAUCACCCAUGUAAGGUGGUAA [Ationbi] (puzzle: Exclusion 6) |  |  |  | 19.4 nM | 11.7 nM | 15.1 nM |
| CCUCCGGUAUAGGAUAUUUAUGAGCUCAGUUCUAAAGAAGGGUAUACAUGAGGAUCACCCAUGUGUGAAGUUAU [Eternabot (L2) Solution 20] (Eterna round: R97, puzzle: Exclusion 6) | 52.5 nM | 49.9 nM |  |  |  |  |
| UAUAACCGAGGAUAUACAUGAGGAUCACCCAUGUAAUGUAGUAUAGUGUAUGUAAGAUGUAGAAGGUGGGAUGU (Eterna round: R97, puzzle: Exclusion 3) | 49.8 nM | 59 nM |  |  |  |  |
